# Columns and labels:
# Assay in all cases: cryo-EM structure
# [1] = molecular target: Actinomyces procaprae Csm6 (ApCsm6), wild type (Actinomyces procaprae)
# [2] = molecular target: ApCsm6 H369A (Actinomyces procaprae)
# [3] = molecular target: ApCsm6 R723A (Actinomyces procaprae)
substance,measurement,setting,value
"Actinomyces procaprae Csm6 (ApCsm6), wild type (enzyme)",stoichiometry N,[1],4
ApCsm6 H369A (enzyme),stoichiometry N,[2],4
ApCsm6 R723A (enzyme),stoichiometry N,[3],4

# Reference: paper doi:10.1101/2025.10.25.684504
